According to PMC10457321, “Architecture of the Heme-translocating CcmABCD/E complex required for Cytochrome c maturation” (Nature Communications, 2023):

Assays:
[1] = target: T1, Ccm(ABCD)2 heterooctameric heme translocation complex (Escherichia coli, UniProt P33931 1-207; P0ABL8 1-220; P0ABM1 1-245; P0ABM5 1-69); test: cryo-EM structure; single-particle analysis of the co-expressed, co-purified wild-type CcmABCDE sample in GDN, nucleotide-free, inward-open state; classes Ccm(ABCD)2 at 3.47 A and Ccm(ABCD)2E at 3.81 A; 20 mM Tris/HCl pH 7.5, 150 mM NaCl; conditions: both partners purified
T1 construct: CcmA of Escherichia coli, as m1; CcmB of Escherichia coli, as m2; CcmC of Escherichia coli, as m3; CcmD of Escherichia coli, as m4; Nucleotide-free, inward-open state; C2-symmetric heterooctamer; Used as the target of CcmE; also called CcmABCD complex; source: GDN; copies: 2 + 2 + 2 + 2
T1 sequence 1: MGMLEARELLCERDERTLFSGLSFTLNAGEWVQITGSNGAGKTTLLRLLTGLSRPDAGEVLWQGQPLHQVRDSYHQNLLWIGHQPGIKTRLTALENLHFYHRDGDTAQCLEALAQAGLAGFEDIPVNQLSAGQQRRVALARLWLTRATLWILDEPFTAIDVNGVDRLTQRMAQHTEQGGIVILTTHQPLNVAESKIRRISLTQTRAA
T1 sequence 2: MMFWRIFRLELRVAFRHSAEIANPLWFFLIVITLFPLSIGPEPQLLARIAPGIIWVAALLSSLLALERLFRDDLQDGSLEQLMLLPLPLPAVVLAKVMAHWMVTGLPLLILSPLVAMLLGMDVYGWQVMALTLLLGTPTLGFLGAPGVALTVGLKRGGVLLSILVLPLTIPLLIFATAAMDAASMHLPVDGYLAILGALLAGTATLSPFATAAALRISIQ
T1 sequence 3: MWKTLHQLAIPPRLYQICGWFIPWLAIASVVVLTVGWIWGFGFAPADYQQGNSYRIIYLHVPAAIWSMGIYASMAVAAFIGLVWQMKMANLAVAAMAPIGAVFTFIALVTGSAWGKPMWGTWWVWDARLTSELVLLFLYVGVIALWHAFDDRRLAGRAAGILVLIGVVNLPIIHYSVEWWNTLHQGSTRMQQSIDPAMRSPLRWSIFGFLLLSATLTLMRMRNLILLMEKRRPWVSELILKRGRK
T1 sequence 4: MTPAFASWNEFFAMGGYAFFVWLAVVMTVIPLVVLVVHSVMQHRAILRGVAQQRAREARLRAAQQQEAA

[2] = target: the molecule itself; test: cryo-EM structure; single-particle analysis of the co-expressed, co-purified E154Q^A variant complex in DDM, no ATP added, closed state; Ccm(E154QAB)2CD at 3.94 A
[3] = target: the molecule itself; test: cryo-EM structure; single-particle analysis of the co-expressed, co-purified E154Q^A variant complex in GDN with 2.5 mM ATP added, closed state; Ccm(E154QAB)2CD with ATP at 3.62 A

B1: CcmE, heme chaperone (natural protein, Escherichia coli)
chain: MNIRRKNRLWIACAVLAGLALTIGLVLYALRSNIDLFYTPGEILYGKRETQQMPEVGQRLRVGGMVMPGSVQRDPNSLKVTFTIYDAEGSVDVSYEGILPDLFREGQGVVVQGELEKGNHILAKEVLAKHDENYTPPEVEKAMEANHRRPASVYKDPAS
notes: CcmE of Escherichia coli, monotopic membrane protein with an N-terminal transmembrane helix (modelled N2 to S32) and a periplasmic beta-barrel domain from F37; the ccmE gene stood in the construct used to produce CcmABCD; also called chaperone CcmE; source: GDN
[1]
  stoichiometry N: 1

B2: CcmB, transmembrane subunit of the core ABC transporter CcmAB (natural protein, Escherichia coli)
chain: MMFWRIFRLELRVAFRHSAEIANPLWFFLIVITLFPLSIGPEPQLLARIAPGIIWVAALLSSLLALERLFRDDLQDGSLEQLMLLPLPLPAVVLAKVMAHWMVTGLPLLILSPLVAMLLGMDVYGWQVMALTLLLGTPTLGFLGAPGVALTVGLKRGGVLLSILVLPLTIPLLIFATAAMDAASMHLPVDGYLAILGALLAGTATLSPFATAAALRISIQ
notes: CcmB of Escherichia coli, integral membrane protein with six transmembrane helices, expressed from the ccm operon amplified from pEC86; Expressed from the cloned ccm operon; no truncation is described; source: DDM or GDN
[2]
  stoichiometry N: 2

B3: CcmA E154Q variant with N-terminal StrepTag(II) (natural protein, Escherichia coli)
chain: MGMLEARELLCERDERTLFSGLSFTLNAGEWVQITGSNGAGKTTLLRLLTGLSRPDAGEVLWQGQPLHQVRDSYHQNLLWIGHQPGIKTRLTALENLHFYHRDGDTAQCLEALAQAGLAGFEDIPVNQLSAGQQRRVALARLWLTRATLWILDQPFTAIDVNGVDRLTQRMAQHTEQGGIVILTTHQPLNVAESKIRRISLTQTRAA
notes: CcmA of Escherichia coli with the catalytic glutamate of the switch II region (Walker B motif) replaced; Same construct as m1 apart from E154Q; also called E154Q^A variant; ^E154QA; source: DDM or GDN
[3]
  stoichiometry N: 2
